According to patent US20150344570A1 (published 2015):

T1: FcγRIIa H (human, UniProt P12318 34-217)
T1 construct: extracellular domain; also called FcgRIIa H; 2aH; not shown: His tag at the C terminus
T1 sequence (looked up): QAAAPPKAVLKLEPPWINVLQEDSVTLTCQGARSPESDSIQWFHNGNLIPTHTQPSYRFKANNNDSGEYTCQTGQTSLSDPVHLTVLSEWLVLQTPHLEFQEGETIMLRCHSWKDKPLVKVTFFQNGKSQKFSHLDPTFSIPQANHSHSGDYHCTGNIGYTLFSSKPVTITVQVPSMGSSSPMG

T2: FcγRIIb (human, UniProt P31994 43-217)
T2 construct: extracellular domain; also called FcgRIIb; 2b; not shown: His tag at the C terminus
T2 sequence (looked up): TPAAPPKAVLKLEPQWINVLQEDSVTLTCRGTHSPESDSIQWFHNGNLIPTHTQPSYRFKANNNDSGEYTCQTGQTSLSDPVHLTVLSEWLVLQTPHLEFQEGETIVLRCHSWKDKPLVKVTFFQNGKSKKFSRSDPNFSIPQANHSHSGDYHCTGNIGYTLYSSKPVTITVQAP

T3: FcγRIIb (human, UniProt P31994 43-217)
T3 construct: extracellular domain; also called FcgRIIb; CD32B
T3 sequence (looked up): T2 sequence (looked up)

B1: GpH7-A5/GpH7-B3 variant P329_01G/GpL16-k0 (antibody, human IgG1, kappa)
heavy 1: not shown
heavy 2: not shown
light: DIVMTQSPLSLPVTPGEPASISCQASESLVHSNRNTYLHWYLQKPGQSPQLLIYKVSNRFSGVPDRFSGSGSGTDFTLKISRVEAEDVGVYYCSQNTHVPPTFGQGTKVEIERTVAAPSVFIFPPSDEQLKSGTASVVCLLNNFYPREAKVQWKVDNALQSGNSQESVTEQDSKDSTYSLSSTLTLSKADYEKHKVYACEVTHQGLSSPVTKSFNRGEC
notes: He Ab: mutation in the GpH7-B3 H chain only
B2: GpH7-A5/GpH7-B3 variant A327_04F/GpL16-k0 (antibody, human IgG1, kappa)
heavy 1: not shown
heavy 2: not shown
light: B1 light
notes: as for B1
B3: GpH7-A5/GpH7-B3 variant A327_06M/GpL16-k0 (antibody, human IgG1, kappa)
heavy 1: not shown
heavy 2: not shown
light: B1 light
notes: as for B1
B4: GpH7-A5/GpH7-B3 variant A327_12R/GpL16-k0 (antibody, human IgG1, kappa)
heavy 1: not shown
heavy 2: not shown
light: B1 light
notes: as for B1
B5: GpH7-A5/GpH7-B3 variant A327_19Q/GpL16-k0 (antibody, human IgG1, kappa)
heavy 1: not shown
heavy 2: not shown
light: B1 light
notes: as for B1
B6: GpH7-A5/GpH7-B3 variant A330_03V/GpL16-k0 (antibody, human IgG1, kappa)
heavy 1: not shown
heavy 2: not shown
light: B1 light
notes: as for B1
B7: GpH7-A5/GpH7-B3 variant A330_07I/GpL16-k0 (antibody, human IgG1, kappa)
heavy 1: not shown
heavy 2: not shown
light: B1 light
notes: as for B1
B8: GpH7-A5/GpH7-B3 variant A330_08L/GpL16-k0 (antibody, human IgG1, kappa)
heavy 1: not shown
heavy 2: not shown
light: B1 light
notes: He Ab: A330L (EU numbering) in the GpH7-B3 H chain only; also called GpH7-A5/GpH7-B3-20-08L/GpL16-k0
B9: GpH7-A5/GpH7-B3 variant A330_12R/GpL16-k0 (antibody, human IgG1, kappa)
heavy 1: not shown
heavy 2: not shown
light: B1 light
notes: as for B1
B10: GpH7-A5/GpH7-B3 variant A330_13S/GpL16-k0 (antibody, human IgG1, kappa)
heavy 1: not shown
heavy 2: not shown
light: B1 light
notes: as for B1
B11: GpH7-A5/GpH7-B3 variant A330_14T/GpL16-k0 (antibody, human IgG1, kappa)
heavy 1: not shown
heavy 2: not shown
light: B1 light
notes: as for B1
B12: GpH7-A5/GpH7-B3 variant A330_18N/GpL16-k0 (antibody, human IgG1, kappa)
heavy 1: not shown
heavy 2: not shown
light: B1 light
notes: as for B1
B13: GpH7-A5/GpH7-B3 variant E333_01G/GpL16-k0 (antibody, human IgG1, kappa)
heavy 1: not shown
heavy 2: not shown
light: B1 light
notes: as for B1
B14: GpH7-A5/GpH7-B3 variant E333_11K/GpL16-k0 (antibody, human IgG1, kappa)
heavy 1: not shown
heavy 2: not shown
light: B1 light
notes: as for B1
B15: GpH7-A5/GpH7-B3 variant E333_13S/GpL16-k0 (antibody, human IgG1, kappa)
heavy 1: not shown
heavy 2: not shown
light: B1 light
notes: as for B1
B16: GpH7-A5/GpH7-B3 variant E333_18N/GpL16-k0 (antibody, human IgG1, kappa)
heavy 1: not shown
heavy 2: not shown
light: B1 light
notes: as for B1
B17: GpH7-A5/GpH7-B3 variant I332_03V/GpL16-k0 (antibody, human IgG1, kappa)
heavy 1: not shown
heavy 2: not shown
light: B1 light
notes: as for B1
B18: GpH7-A5/GpH7-B3 variant I332_12R/GpL16-k0 (antibody, human IgG1, kappa)
heavy 1: not shown
heavy 2: not shown
light: B1 light
notes: as for B1
B19: GpH7-A5/GpH7-B3 variant I332_18N/GpL16-k0 (antibody, human IgG1, kappa)
heavy 1: not shown
heavy 2: not shown
light: B1 light
notes: as for B1
B20: GpH7-A5/GpH7-B3 variant I336_19Q/GpL16-k0 (antibody, human IgG1, kappa)
heavy 1: not shown
heavy 2: not shown
light: B1 light
notes: as for B1
B21: GpH7-A5/GpH7-B3 variant I336_20W/GpL16-k0 (antibody, human IgG1, kappa)
heavy 1: not shown
heavy 2: not shown
light: B1 light
notes: as for B1
B22: GpH7-A5/GpH7-B3 variant L328_11K/GpL16-k0 (antibody, human IgG1, kappa)
heavy 1: not shown
heavy 2: not shown
light: B1 light
notes: as for B1
B23: GpH7-A5/GpH7-B3 variant L328_12R/GpL16-k0 (antibody, human IgG1, kappa)
heavy 1: not shown
heavy 2: not shown
light: B1 light
notes: as for B1
B24: GpH7-A5/GpH7-B3 variant N325_11K/GpL16-k0 (antibody, human IgG1, kappa)
heavy 1: not shown
heavy 2: not shown
light: B1 light
notes: as for B1
B25: GpH7-A5/GpH7-B3 variant N325_12R/GpL16-k0 (antibody, human IgG1, kappa)
heavy 1: not shown
heavy 2: not shown
light: B1 light
notes: as for B1
B26: GpH7-A5/GpH7-B3 variant P329_14T/GpL16-k0 (antibody, human IgG1, kappa)
heavy 1: not shown
heavy 2: not shown
light: B1 light
notes: He Ab; mutation in the GpH7-B3 chain only; also called He Ab
B27: GpH7-A5/GpH7-B3 variant P329_15Y/GpL16-k0 (antibody, human IgG1, kappa)
heavy 1: not shown
heavy 2: not shown
light: B1 light
notes: as for B26
B28: GpH7-A5/GpH7-B3 variant P329_16H/GpL16-k0 (antibody, human IgG1, kappa)
heavy 1: not shown
heavy 2: not shown
light: B1 light
notes: as for B26
B29: GpH7-A5/GpH7-B3 variant P329_18N/GpL16-k0 (antibody, human IgG1, kappa)
heavy 1: not shown
heavy 2: not shown
light: B1 light
notes: as for B26
B30: GpH7-A5/GpH7-B3 variant P329_19Q/GpL16-k0 (antibody, human IgG1, kappa)
heavy 1: not shown
heavy 2: not shown
light: B1 light
notes: as for B26
B31: GpH7-A5/GpH7-B3 variant P329_20W/GpL16-k0 (antibody, human IgG1, kappa)
heavy 1: not shown
heavy 2: not shown
light: B1 light
notes: as for B26
B32: GpH7-A5/GpH7-B3 variant P331_01G/GpL16-k0 (antibody, human IgG1, kappa)
heavy 1: not shown
heavy 2: not shown
light: B1 light
notes: as for B26
B33: GpH7-A5/GpH7-B3 variant T335_11K/GpL16-k0 (antibody, human IgG1, kappa)
heavy 1: not shown
heavy 2: not shown
light: B1 light
notes: as for B26
B34: GpH7-A5/GpH7-B3 variant T335_12R/GpL16-k0 (antibody, human IgG1, kappa)
heavy 1: not shown
heavy 2: not shown
light: B1 light
notes: as for B26

The binders below were run against T1, FcγRIIa H (assay: SPR (Biacore); He/Con_2aH divided by He/Con_2b (FcγRIIa H versus FcγRIIb)).
Procedure: (§1) The heterodimerized antibodies He Abs in which one of the H chains was introduced with an alteration were assayed for their binding activities to each activating FcγR and inhibitory FcγR according to the method described in Example 4. […] The activating FcγRs in FIGS. 26, 27, 28, and 29 are FcγRIa, FcγRIIa (R), FcγRIIa (H), and FcγRIIIa, respectively.
(§2) Analysis of interaction between objective antibody and the FcγR was carried out using Biacore T100 (GE Healthcare). HBS-EP+ (GE Healthcare) was used as the running buffer, and the measurement temperature was set to 25° C. Chips produced by immobilizing the antigen peptide by the amine coupling method to a Series S Sencor Chip CM5 (GE Healthcare), or alternatively, chips produced by allowing preliminarily biotinylated antigen peptides to interact with and immobilize onto a Series S Sensor Chip SA (certified) (GE Healthcare) were used. Antibodies of interest were captured onto an antigen peptide-immobilized chip, and allowed to interact to each FcγR diluted with running buffer. To regenerate and repeatedly use the chip, the antibodies captured on the chip were washed off by reacting 10 mM glycine-HCl, pH 1.5.

Binder	He_2aH/2b (IIaH/IIb)
B1	1.32 ratio
B2	1.32 ratio
B3	1.27 ratio
B4	1.26 ratio
B5	1.24 ratio
B6	1.52 ratio
B7	1.3 ratio
B8	1.24 ratio
B9	1.27 ratio
B10	1.58 ratio
B11	1.21 ratio
B12	1.28 ratio
B13	1.2 ratio
B14	1.22 ratio
B15	1.23 ratio
B16	1.26 ratio
B17	1.3 ratio
B18	1.8 ratio
B19	1.22 ratio
B20	1.27 ratio
B21	1.52 ratio
B22	4.27 ratio
B23	4.6 ratio
B24	1.55 ratio
B25	1.56 ratio

What follows are binders tested against T1, FcγRIIa H (assay: SPR (Biacore), FcγR passed over captured antibody; binding amount as % of control GpH7-A5/GpH7-B3/GpL16-k0 (=100)).
Procedure: as §1, §2

Binder	He/Con_2aH
B1	54.9 relative, control = 100
B2	84.4 relative, control = 100
B3	75.5 relative, control = 100
B4	11.3 relative, control = 100
B5	67.3 relative, control = 100
B6	79.7 relative, control = 100
B7	87.3 relative, control = 100
B8	87.6 relative, control = 100
B9	108 relative, control = 100
B10	65.4 relative, control = 100
B11	94.5 relative, control = 100
B12	81.6 relative, control = 100
B13	97.7 relative, control = 100
B14	98.1 relative, control = 100
B15	101 relative, control = 100
B16	96.2 relative, control = 100
B17	105 relative, control = 100
B18	87.8 relative, control = 100
B19	110 relative, control = 100
B20	73.7 relative, control = 100
B21	30.9 relative, control = 100
B22	32.2 relative, control = 100
B23	42.5 relative, control = 100
B24	16.1 relative, control = 100
B25	29.9 relative, control = 100

The binders below were run against T2, FcγRIIb in the same assay as above.
Procedure: as §1, §2

Binder	He/Con_2b
B1	41.7 relative, control = 100
B2	63.7 relative, control = 100
B3	59.5 relative, control = 100
B5	54.2 relative, control = 100
B6	52.4 relative, control = 100
B7	67.1 relative, control = 100
B8	70.5 relative, control = 100
B9	84.8 relative, control = 100
B10	41.3 relative, control = 100
B11	77.9 relative, control = 100
B12	63.7 relative, control = 100
B13	81.4 relative, control = 100
B14	80.6 relative, control = 100
B15	81.8 relative, control = 100
B16	76.1 relative, control = 100
B17	80.7 relative, control = 100
B18	48.9 relative, control = 100
B19	89.9 relative, control = 100
B20	58.2 relative, control = 100
B21	20.3 relative, control = 100
B24	10.4 relative, control = 100
B25	19.1 relative, control = 100

What follows are binders tested against T4, FcγRIa (human, UniProt P12314 16-292) (assay: ratio of He/Con_1a to He/Con_2b (FcγRIa over FcγRIIb), SPR).
T4 construct: extracellular domain; also called FcgRI; CD64
Procedure, shortened: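 Binding responses come from Biacore SPR with FcγR as analyte over antibody captured on an antigen-peptide surface. Conditions: HBS-EP+ buffer, 25 °C.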

T4 sequence (P12314 16-292): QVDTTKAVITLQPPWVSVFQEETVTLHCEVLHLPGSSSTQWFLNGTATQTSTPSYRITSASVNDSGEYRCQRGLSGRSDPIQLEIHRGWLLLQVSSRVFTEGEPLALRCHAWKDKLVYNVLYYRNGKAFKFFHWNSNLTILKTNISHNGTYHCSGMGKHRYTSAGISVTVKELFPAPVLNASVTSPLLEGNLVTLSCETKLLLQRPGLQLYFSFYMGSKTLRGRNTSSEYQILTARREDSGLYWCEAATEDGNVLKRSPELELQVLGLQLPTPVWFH

Binder	He_1a/2b (Ia/IIb)
B26	2.37
B27	2.09
B28	2.45
B29	2.29
B30	2.31
B31	2.15
B32	1.88
B33	1.22
B34	1.23

What follows are binders tested against T3, FcγRIIb (assay: SPR (Biacore), captured antibody, soluble FcγR; relative to GpH7-A5/GpH7-B3/GpL16-k0 = 100).

Binder	He/Con_2b
B26	37.9 % of control
B27	45.7 % of control
B28	39.1 % of control
B29	40.4 % of control
B30	30.7 % of control
B31	45.1 % of control
B32	45.4 % of control
B33	91 % of control
B34	91.9 % of control

The binders below were run against T4, FcγRIa in the same assay as above.

Binder	He/Con_1a
B26	89.7 % of control
B27	95.6 % of control
B28	95.6 % of control
B29	92.4 % of control
B30	70.7 % of control
B31	96.9 % of control
B32	85.3 % of control
B33	111 % of control
B34	113 % of control
